Measurements reported in paper doi:10.1101/2025.10.25.684501.

Biological target: reconstituted silk fibroin (RSF) labelled with DyLight 650 (Bombyx mori) (UniProt P05790)
Assay: MST

With “wild-type (WT) α-synuclein (from UniProt P37840 1-140) (natural protein)” the Kd was 24 nM.
